Laboratory results: publication PMC3082517 (PLoS Biology, 2011)

Tests used:
p75^NTR = assay: p75NTR protein levels in serum deprived PC12 cells (immunoblotting); assay type: cell-based; settings: serum deprived PC12, between 24 and 48 h; 100 nM DHEA, 100 ng/ml NGF; n = 5, p<0.01
Procedure: (§1) PC12 or HEK293 cells lysates were electrophoresed through a 12% SDS-polyacrylamide gel, and then proteins were transferred to nitrocellulose membranes, which were processed according to standard Western blotting procedures, as previously described. To detect protein levels, membranes were incubated with the appropriate antibodies: Bcl-2 (dilution 1∶500), phospho TrkA (dilution 1∶500), total TrkA (dilution1∶500), p75^NTR (dilution 1∶500), phospho Shc (dilution 1∶1000), total Shc (dilution 1∶1000), phospho Akt (dilution 1∶500), total Akt (dilution 1∶500), phospho ERK1/2 (dilution 1∶500), and total ERK1/2 (dilution 1∶500). Proteins were visualized using the ECL Western blotting kit (ECL Amersham Biosciences, UK), and blots were exposed to Kodak X-Omat AR films. A PC-based Image Analysis program was used to quantify the intensity of each band (Image Analysis, Inc., Ontario, Canada).
(§2) To normalize for protein content the blots were stripped and stained with GAPDH antibody (dilution 1∶1000); the concentration of each target protein was normalized versus GAPDH. Where phosphorylation of TrkA or kinases was measured, membranes were first probed for the phosphorylated form of the protein, then stripped, and probed for the total protein.

[1] = tested on: Shc, ERK1/2, and Akt kinases; assay: Phosphorylation of Shc, ERK1/2 and Akt kinases in PC12 cells (Western blot); assay type: cell-based; settings: serum deprived naive PC12 cells, 10 min; 100 nM DHEA, 100 ng/ml NGF
Procedure: as §1, §2

PC12 cell membranes = assay: [3H]-DHEA displacement, PC12 cell membranes; assay type: binding; settings: unpublished data
Procedure: HEK293 cells transfected with an empty vector (HEK293-Vector) or overexpressing p75^NTR (HEK293-p75) or TrkA (HEK293-TrkA), and PC12 cells wild type or shRNA knocked down for p75^NTR and TrkA, were cultured, collected by scraping on ice and washed twice with cold Phosphate Buffer Saline (PBS), pH 7.4. After centrifugation at 1,200 rpm, cells were homogenized in a 50 mM Tris-HCl buffer, pH 7.4 (at 4°C), containing freshly added protease inhibitors (1 mM PMSF and 1 µg/ml aprotinin). Crude membrane fractions were isolated by differential centrifugation at 2,500×g (10 min at 4°C, to remove unbroken cells and nuclei) and 102,000×g (1 h, at 4°C). Membranes were washed once with ice-cold 50 mM Tris–HCl buffer, pH 7.4, and re-suspended in the same buffer. […]
Membranes were incubated for 30 min at 25°C or overnight at 4°C, on a rotating plate; then they were collected on GF/B filters, prewetted in 0.5% PEI solution at 4°C. Filters were washed three times with ice-cold PBS, dried, and counted in scintillation fluid (SigmaFluor, Sigma) in a scintillation counter (Perkin Elmer, Foster City, CA) with 60% efficiency for Tritium. For saturation curves, specific binding (Bound, B) was calculated as the difference of Total Binding − Non Specific Binding. KDs were calculated from B/F over B Scatchard plots. […]

TrkA receptor = biological target: TrkA receptor; design: method as in PMID 16939974; settings: read-out: KD of NGF binding to TrkA receptor; cited from earlier work
TrkA [2] = biological target: T1, TrkA (Rattus norvegicus, UniProt P35739); assay: TrkA phosphorylation in HEK293^TrkA transfectants (anti-tyrosine IP, Western blot); assay type: cell-based; design: expressed in transfected cells; host or cells: HEK293; settings: 10 min (and 20 min), steroids 100 nM, NGF 100 ng/ml
Procedure: (§3) HEK293 cells were transfected with the appropriate plasmids (TrkA, p75^NTR, RIP2, TRAF-6, and RhoGDI) by using Lipofectamine 2000 (Invitrogen). Cells were harvested 48 h after transfection and suspended in lysis buffer (50 mM Tris-HCl, 0.15 M NaCl, 1% Triton-X100, pH 7.4) supplemented with protease inhibitors. Lysates were precleared for 1 h with Protein A-Sepharose beads (Amersham) and immunoprecipitated with the appropriate antibody (pTyr, Flag, or c-myc) overnight at 4°C. Protein A Sepharose beads were incubated with the lysates for 4 h at 4°C with gentle shaking. […] Beads were collected by centrifugation, washed four times with lysis buffer, and resuspended in SDS loading buffer. Proteins were separated by SDS/PAGE, followed by immunoblotting with specific antibodies.
as §1, §2

TrkA [3] = biological target: T1, TrkA; assay: Tyr490 TrkA phosphorylation in naive PC12 cells (Western blot); assay type: cell-based; design: PC12 cells, endogenously expressing TrkA receptors; endogenous in cells; host or cells: PC12; settings: 10 min, DHEA 100 nM, NGF 100 ng/ml
Procedure: as §1, §2

TrkA [4] = assay: TrkA protein levels in serum deprived PC12 cells (immunoblotting); assay type: cell-based; settings: serum deprived PC12, 12 to 48 h; 100 nM DHEA, 100 ng/ml NGF; n = 5, p<0.01
Procedure: as §1, §2

[5] = biological target: T2, p75^NTR with effectors TRAF6, RIP2, RhoGDI (Rattus norvegicus, UniProt P07174); assay: Co-immunoprecipitation of p75NTR with effectors TRAF6, RIP2, RhoGDI in co-transfected HEK293 cells; assay type: cell-based; settings: co-transfected HEK293, 30 min; 100 nM DHEA, 100 ng/ml NGF
T2 construct: expressed in transfected cells; host or cells: HEK293
T2 sequence (P07174 30-425): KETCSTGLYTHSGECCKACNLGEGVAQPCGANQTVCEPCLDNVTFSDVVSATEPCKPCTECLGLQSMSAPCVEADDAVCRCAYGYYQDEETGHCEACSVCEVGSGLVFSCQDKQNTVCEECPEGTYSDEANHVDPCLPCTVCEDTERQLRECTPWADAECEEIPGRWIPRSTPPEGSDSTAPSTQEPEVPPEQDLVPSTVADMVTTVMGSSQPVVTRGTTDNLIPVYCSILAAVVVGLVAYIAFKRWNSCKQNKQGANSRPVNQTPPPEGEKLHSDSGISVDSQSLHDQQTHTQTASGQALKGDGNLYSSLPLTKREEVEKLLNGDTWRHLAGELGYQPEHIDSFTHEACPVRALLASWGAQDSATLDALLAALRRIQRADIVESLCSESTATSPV
Procedure: as §3

nnr5 cells = assay: Apoptosis of nnr5 cells (PC12 clone expressing only p75NTR); assay type: cell-based; settings: DHEA 100 nM, NGF 100 ng/ml
Procedure: PC12 cells were obtained from LGC Promochem (LGC Standards GmbH, Germany) and nnr5 cells from Dr. C.F. Ibáñez (Karolinska Institute). Both cell types were grown in RPMI 1640 containing 2 mM L-glutamine, 15 mM HEPES, 100 units/ml penicillin, 0.1 mg/ml streptomycin, and 10% horse serum, 5% fetal calf serum (both charcoal-stripped for removing endogenous steroids) at 5% CO2 and 37°C. HEK-293 cells were obtained from LGC Promochem. Cells were grown in DMEM medium containing 10% fetal bovine serum (charcoal-stripped for removing endogenous steroids), 100 units/ml penicillin, and 0.1 mg/ml streptomycin, at 5% CO2 and […]. HEK-293 and PC12 cells were transfected with Lipofectamine 2000 (InVitrogen) according to manufacturer's instructions. Transfected cells were typically used on the 2nd day after transfection.
PC12 cells were cultured in 12-well plates, and 24 h later they were transfected with the si/shRNAs for TrkA and/or p75^NTR. […] Apoptosis was quantified 24 h later with annexin V-FITC and PI (BD Pharmingen) according to our protocol.

p75^NTR receptor = biological target: p75^NTR receptor; design: method as in PMID 16939974; settings: read-out: KD of NGF binding to p75NTR receptor; cited from earlier work

T1 sequence (P35739 33-799): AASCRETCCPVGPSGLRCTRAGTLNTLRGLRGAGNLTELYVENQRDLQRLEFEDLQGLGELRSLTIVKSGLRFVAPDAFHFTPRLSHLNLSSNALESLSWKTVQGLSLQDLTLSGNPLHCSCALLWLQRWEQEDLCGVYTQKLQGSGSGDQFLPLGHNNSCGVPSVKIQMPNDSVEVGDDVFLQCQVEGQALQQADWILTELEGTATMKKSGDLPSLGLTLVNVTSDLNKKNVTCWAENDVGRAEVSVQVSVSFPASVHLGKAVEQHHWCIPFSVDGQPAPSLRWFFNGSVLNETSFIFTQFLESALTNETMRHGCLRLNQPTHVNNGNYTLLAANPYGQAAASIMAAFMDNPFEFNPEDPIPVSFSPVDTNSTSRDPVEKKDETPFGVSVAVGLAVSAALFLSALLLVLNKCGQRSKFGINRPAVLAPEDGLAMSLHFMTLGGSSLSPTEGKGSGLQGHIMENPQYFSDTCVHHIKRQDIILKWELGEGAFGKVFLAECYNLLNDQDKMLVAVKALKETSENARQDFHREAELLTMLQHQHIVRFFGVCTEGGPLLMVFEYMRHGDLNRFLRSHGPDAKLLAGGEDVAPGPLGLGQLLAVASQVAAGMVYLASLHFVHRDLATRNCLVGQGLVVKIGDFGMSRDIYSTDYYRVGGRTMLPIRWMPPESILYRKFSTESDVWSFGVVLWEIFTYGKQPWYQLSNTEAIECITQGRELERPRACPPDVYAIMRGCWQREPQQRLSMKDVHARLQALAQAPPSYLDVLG

B1: NGF: neurotrophin nerve growth factor (protein)
chain: SSTHPVFHMGEFSVCDSVSVWVGDKTTATDIKGKEVTVLAEVNINNSVFRQYFFETKCRASNPVESGCRGIDSKHWNSYCTTTHTFVKALTTDEKQAAWRFIRIDTACVCVLSRKATRRG
p75NTR receptor levels (p75^NTR): significantly decreased
phosphorylation of Shc, ERK1/2, and Akt kinases [1]: strongly increased
IC50 (PC12 cell membranes): 0.92 ± 0.32 nM
Kd (TrkA receptor): 0.01 nM
phosphorylation of TrkA (TrkA [2]): strongly increased
phosphorylation of TrkA (Tyr490) (TrkA [3]): strongly induced
TrkA receptor levels (TrkA [4]): significantly increased
association of p75NTR with effectors TRAF6 and RIP2 [5]: efficiently induced the association
dissociation of RhoGDI from p75NTR receptors [5]: facilitating the dissociation
effect on apoptosis of nnr5 cells (nnr5 cells): induced apoptosis
Kd (p75^NTR receptor): 1 nM
